Tested on: Chk1
Assay: Chk1 kinase activity of enzyme preparations, ADP production coupled through pyruvate kinase and lactate dehydrogenase (Syntide-2 substrate)
Type: biochemical, human
Settings: for Rate/min: prep concentration 75 nM (HA2-013), 2 nM (HA2-022), 7.3 nM (HB2-061), 0.125 mM Syntide-2, 0.15 mM ATP; for Activity: relative to full length Chk1 (control = 1)
Procedure: The kinase activity of the hChk1 was determined by monitoring the ADP production through enzymatic actions of pyruvate kinase and lactate dehydrogenase. […] Unlike the other forms of Chk1 which have proven difficult to work with (isolate, purify, crystallize, etc), the 1-289 kinase domain form of the human Chk1 enzyme facilitated crystallography, enzyme characterization, and high throughput screening of inhibitors. In particular, the Chk1 kinase domain was used to determine its 3-dimensional structure, which provides unique structural information for inhibitor design for therapeutic development.
The enzymatic activity of a kinase is measured by its ability to catalyze the transfer of a phosphate residue from a nucleoside triphosphate to an amino acid side chain in a selected protein target. The conversion of ATP to ADP generally accompanies the catalytic reaction. Herein, a synthetic substrate peptide, Syntide-2, having amino acid sequence PLARTLSVAGLPGKK (SEQ ID NO. 11) was utilized. The production of ADP from ATP that accompanies phosphoryl transfer to the substrate was coupled to oxidation of NADH using phosphoenolpyruvate (PEP) through the actions of pyruvate kinase (PK) and lactic dehydrogenase (LDH). The oxidation of NADH was monitored by following the decrease of absorbance at 340 nm (e340=6.22 cm−1 mM−1) using a HP8452 spectrophotometer. Typical reaction solutions contained: 4 mM PEP, 0.15 mM NADH, 28 units of LDH/mL, 16 units of PK/mL, 3 mM DTT, 0.125 mM Syntide-2, 0.15 mM ATP and 25 mM MgCl2 in 50 mM TRIS pH 7.5; 400 mM NaCl. Assays were initiated with 10 nM of kinase domain of Chk1, KH289. Ki values were determined by measuring initial enzyme activity in the presence of varying concentrations of inhibitors. The data were analyzed using Enzyme Kinetic and Kaleidagraph software.
The table below (Table 3) compares three different preparations of Chk1. The first preparation is the full length form, which comprises amino acids 1-476 of SEQ ID NO. 2. The next preparation contains proteolytically cleaved fragments, a mixture of Chk1 protein fragments obtained from the full-length protein during fermentation. The exact enzymes involved and cleavage site generated for these fragments is unknown. […] The third preparation is the kinase domain of amino acids 1-289 of SEQ ID NO. 2 (KH289) As mentioned above, the assay used detects the ADP product by coupling through the enzymatic actions of pyruvate kinase and lactate dehydrogenase.

Chain of Chk1 (O14757 9-265 limits assumed): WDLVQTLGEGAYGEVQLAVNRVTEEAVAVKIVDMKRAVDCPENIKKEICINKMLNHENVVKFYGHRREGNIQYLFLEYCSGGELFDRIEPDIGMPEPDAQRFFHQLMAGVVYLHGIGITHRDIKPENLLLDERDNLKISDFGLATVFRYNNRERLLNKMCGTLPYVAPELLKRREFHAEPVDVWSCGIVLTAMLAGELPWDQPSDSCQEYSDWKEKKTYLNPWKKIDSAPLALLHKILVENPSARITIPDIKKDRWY

Row | Rate/min | Activity | Molecule | enzymatic activity compared with the full length protein (ADP production via pyruvate kinase and lactate dehydrogenase)
1 | 0.0190 | 1 (control) fold | HA2-013: preparation of the full length form of human Chk1, amino acids 1-476 of SEQ ID NO. 2 (protein, listed as Homo sapiens) MAVPFVEDWDLVGTLGEGAYGEVQLAVNRVTEEAVAVKIVDMKRAVDCPENIKKEICINKMLNHENVVKFYGHRREGNIQYLFLEYCSGGELFDRIEPDIGMPEPDAQRFFHQLMAGVVYLHGIGITHRDIKPENLLLDERDNLKISDFGLATVFRYNNRERLLNKMCGTLPYVAPELLKRREFHAEPVDVWSCGIVLTAMLAGELPWDQPSDSCQEYSDWKEKKTYLNPWKKIDSAPLALLHKILVENPSARITIPDIKKDRWYNKPLKKGAKRPRVTSGGVSESPSGFSKHIQSNLDFSPVNSASSEENVKYSSSQPEPRTGLSLWDTSPSYIDKLVQGISFSQPTCPDHMLLNSGLLGTPGSSQNPWQRLVKRMTRFFTKLDADKSYQCLKETCEKLQYQWKKSCMNQVTISTTDRRNNKLIFKVNLLEMDDKILVDFRLSKGDGLEFKRHFLKIKGKLIDIVSSQKVWLPAT | –
2 | 0.0200 | +10 fold | HB2-061: preparation of the kinase domain of amino acids 1-289 of SEQ ID NO. 2 (KH289) (protein, listed as Homo sapiens) MAVPFVEDWDLVGTLGEGAYGEVQLAVNRVTEEAVAVKIVDMKRAVDCPENIKKEICINKMLNHENVVKFYGHRREGNIQYLFLEYCSGGELFDRIEPDIGMPEPDAQRFFHQLMAGVVYLHGIGITHRDIKPENLLLDERDNLKISDFGLATVFRYNNRERLLNKMCGTLPYVAPELLKRREFHAEPVDVWSCGIVLTAMLAGELPWDQPSDSCQEYSDWKEKKTYLNPWKKIDSAPLALLHKILVENPSARITIPDIKKDRWYNKPLKKGAKRPRVTSGGVSESPSG | –
3 | – | – | KH289: human Chk1 kinase domain (AA 1-289), C-terminal 6xHis-tag (protein) MAVPFVEDWDLVGTLGEGAYGEVQLAVNRVTEEAVAVKIVDMKRAVDCPENIKKEICINKMLNHENVVKFYGHRREGNIQYLFLEYCSGGELFDRIEPDIGMPEPDAQRFFHQLMAGVVYLHGIGITHRDIKPENLLLDERDNLKISDFGLATVFRYNNRERLLNKMCGTLPYVAPELLKRREFHAEPVDVWSCGIVLTAMLAGELPWDQPSDSCQEYSDWKEKKTYLNPWKKIDSAPLALLHKILVENPSARITIPDIKKDRWYNKPLKKGAKRPRVTSGGVSESPSGHHHHHH | higher enzymatic activity than the full length protein

— US6670167B1, “Catalytic domain of the human effector cell cycle checkpoint protein kinase materials and methods for identification of inhibitors thereof” (Agouron Pharmaceuticals, Inc., priority 1999, dated 2003)
